The results in this text go back to patent US20150175710A1 (published 2015).

Test in all cases: ELISA
The target in test [1] is 6B11.
Test [2] concerns the target 17G10.
Test [3] addresses 12D9.

B1: mouse ENO1 (receptor)
chain: MSILRIHAREIFDSRGNPTVEVDLYTAKGLFRAAVPSGASTGIYEALELRDNDKTRFMGKGVSQAVEHINKTIAPALVSKKVNVVEQEKIDKLMIEMDGTENKSKFGANAILGVSLAVCKAGAVEKGVPLYRHIADLAGNPEVILPVPAFNVINGGSHAGNKLAMQEFMILPVGASSFREAMRIGAEVYHNLKNVIKEKYGKDATNVGDEGGFAPNILENKEALELLKTAIAKAGYTDQVVIGMDVAASEFYRSGKYDLDFKSPDDPSRYITPDQLADLYKSFVQNYPVVSIEDPFDQDDWGAWQKFTASAGIQVVGDDLTVTNPKRIAKAASEKSCNCLLLKVNQIGSVTESLQACKLAQSNGWGVMVSHRSGETEDTFIADLVVGLCTGQIKTGAPCRSERLAKYNQILRIEEELGSKAKFAGRSFRNPLAK
With B1, the values for the Kd in test [1], in test [2] and in test [3] were 3.04 nM, 33.9 nM and 0.39 nM, respectively.
